Series [1] concerns the target T1, N-terminal fragment of MMLV reverse transcriptase (fingers and palm domains) (Moloney murine leukemia virus, UniProt P03355 683-937). The experiment in a line: X-ray crystallography (2.14 A); host-guest complex; SP lesions in central 10 bp, free of protein contacts; Crystallization: protein 2 mM in 50 mM MES pH 6.0, 0.3 M NaCl, 1 mM DTT; DNA 2.5 mM duplex in 10 mM HEPES pH 7.0, 10 mM MgCl2; crystallization buffer and temperature not given in the material. Conditions: protein: recombinant; tags: 6xHis tag removed with thrombin; chain copies: 2; blunt; self-complementary, 2 copies of one strand.

In series [2] the target is T1, N-terminal fragment of MMLV reverse …. The series can be described thus: X-ray crystallography (1.72 A); host-guest complex; undamaged DNA; Crystallization: protein 2 mM in 50 mM MES pH 6.0, 0.3 M NaCl, 1 mM DTT; DNA 2.5 mM duplex in 10 mM HEPES pH 7.0, 10 mM MgCl2; crystallization buffer and temperature not given in the material. Conditions: protein: recombinant; tags: 6xHis tag removed with thrombin; chain copies: 2; blunt; self-complementary, 2 copies of one strand.

Two molecules from PMC3949526, “The structure of an authentic spore photoproduct lesion in DNA suggests a basis for recognition” can be followed below.

T1 sequence (P03355 683-937): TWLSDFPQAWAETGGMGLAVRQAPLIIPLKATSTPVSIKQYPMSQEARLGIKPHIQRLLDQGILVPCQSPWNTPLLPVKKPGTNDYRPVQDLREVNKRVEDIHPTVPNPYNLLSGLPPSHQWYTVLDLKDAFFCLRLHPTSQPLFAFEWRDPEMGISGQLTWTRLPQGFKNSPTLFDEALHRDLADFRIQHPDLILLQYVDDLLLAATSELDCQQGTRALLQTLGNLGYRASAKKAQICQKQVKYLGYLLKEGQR

B1: SP DNA 16-mer (dsDNA)
DNA 1: ATCCGTTATAACGGAT
DNA 2: ATCCGTTATAACGGAT
modifications: spore photoproduct (5-thyminyl-5,6-dihydrothymine) linking T6 and T7 in each strand
B1: the binding result in series [1] is recorded as “binds”.

B2: non-SP DNA 16-mer (dsDNA)
DNA 1: ATCCGTTATAACGGAT
DNA 2: ATCCGTTATAACGGAT
B2: the binding result in series [2] is “binds”.
